From patent publication US20230287348A1

What was measured:
[1] = target: CD19 antigen on ALL cells (REH cell line, primary ALL blasts) (human) (UniProt P15391); assay: cell-based or functional assay
[2] = target: CD123 antigen on AML cells (THP-1 cell line, primary AML blasts) (human) (UniProt P26951); assay: cell-based or functional assay
Sequence of UniProt P26951 (P26951 19-378): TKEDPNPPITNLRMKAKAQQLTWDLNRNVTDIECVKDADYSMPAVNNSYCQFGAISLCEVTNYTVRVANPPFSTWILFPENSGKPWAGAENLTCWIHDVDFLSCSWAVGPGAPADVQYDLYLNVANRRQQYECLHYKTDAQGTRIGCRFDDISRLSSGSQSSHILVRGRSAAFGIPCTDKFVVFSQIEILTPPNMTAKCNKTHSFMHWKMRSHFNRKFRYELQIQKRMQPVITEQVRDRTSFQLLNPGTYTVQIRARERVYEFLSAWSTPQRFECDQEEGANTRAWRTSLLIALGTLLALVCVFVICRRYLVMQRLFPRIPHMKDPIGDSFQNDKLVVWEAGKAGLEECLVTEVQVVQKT

Sequence of UniProt P15391 (P15391 20-556): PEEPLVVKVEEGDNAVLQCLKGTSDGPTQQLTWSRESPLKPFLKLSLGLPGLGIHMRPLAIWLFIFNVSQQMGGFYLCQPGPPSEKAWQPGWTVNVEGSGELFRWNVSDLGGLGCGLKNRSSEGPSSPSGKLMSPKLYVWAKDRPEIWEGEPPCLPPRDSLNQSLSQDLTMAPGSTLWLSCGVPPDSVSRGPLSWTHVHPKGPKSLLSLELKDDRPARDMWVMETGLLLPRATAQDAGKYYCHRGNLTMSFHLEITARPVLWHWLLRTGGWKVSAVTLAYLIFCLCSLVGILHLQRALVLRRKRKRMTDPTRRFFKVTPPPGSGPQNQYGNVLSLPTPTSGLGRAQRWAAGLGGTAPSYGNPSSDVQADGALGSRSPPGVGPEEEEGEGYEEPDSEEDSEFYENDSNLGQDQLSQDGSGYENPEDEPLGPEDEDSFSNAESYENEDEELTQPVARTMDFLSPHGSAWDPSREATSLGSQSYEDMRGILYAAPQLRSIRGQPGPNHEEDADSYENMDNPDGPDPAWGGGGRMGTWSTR

Row | Substance | lysis of ALL primary blasts by CD19·CAR+ CIK cell populations (cytotoxic assay) [1] | lysis of REH ALL cell line by CD19·CAR+ CIK cell populations (cytotoxic assay) [1] | lysis of AML primary blasts by CD123·CAR+ CIK cell populations (cytotoxic assay) [2] | lysis of THP-1 AML cell line by CD123·CAR+ CIK cell populations (cytotoxic assay) [2]
1 | CD19·CAR (anti-CD19 chimeric antigen receptor: VL and VH of clone FMC63 in frame with CH2CH3-CD28-OX40-ζ), expressed on CIK cells (from UniProt P10747 153-220; P43489 242-277; P20963 52-163) | 56.8% | 80% | – | –
2 | CD123·CAR (anti-CD123 chimeric antigen receptor: scFv from mAb 7G3 in frame with CH2CH3-CD28-OX40-ζ), expressed on CIK cells (from UniProt P10747 153-220; P43489 242-277; P20963 52-163) | – | – | 60% | 85%
